The target in test [1] is PAR-2 RING domain (C. elegans). Kind of test: AUC.
Test [2] concerns the target PAR-2 RING domain (C. elegans). Put plainly: SEC-MALS. For orientation: Size exclusion chromatography separates by hydrodynamic size, large species first.

A word on the Kd: it is a measure of binding affinity in units of concentration. The low end stands for higher affinity, the high end for lower affinity. Broadly, the stoichiometry N is a count of units in the complex or per binding partner. Consider PAR-2 RING domain (domain or fragment), for which, in test [1], the Kd stood at 358 nM. In test [2], this substance displayed a stoichiometry N of 2.

The record behind these values is publication doi:10.1101/2023.08.10.552581.
